This note sets out measurements from patent US20240287172A1 (SCIRHOM, published 2024).

Where only a bound is given, the exact number is not on record here.

The target of one test is T1, hiR2-FL-I566A-T7 (human, UniProt Q6PJF5 1-856).
T1 sequence: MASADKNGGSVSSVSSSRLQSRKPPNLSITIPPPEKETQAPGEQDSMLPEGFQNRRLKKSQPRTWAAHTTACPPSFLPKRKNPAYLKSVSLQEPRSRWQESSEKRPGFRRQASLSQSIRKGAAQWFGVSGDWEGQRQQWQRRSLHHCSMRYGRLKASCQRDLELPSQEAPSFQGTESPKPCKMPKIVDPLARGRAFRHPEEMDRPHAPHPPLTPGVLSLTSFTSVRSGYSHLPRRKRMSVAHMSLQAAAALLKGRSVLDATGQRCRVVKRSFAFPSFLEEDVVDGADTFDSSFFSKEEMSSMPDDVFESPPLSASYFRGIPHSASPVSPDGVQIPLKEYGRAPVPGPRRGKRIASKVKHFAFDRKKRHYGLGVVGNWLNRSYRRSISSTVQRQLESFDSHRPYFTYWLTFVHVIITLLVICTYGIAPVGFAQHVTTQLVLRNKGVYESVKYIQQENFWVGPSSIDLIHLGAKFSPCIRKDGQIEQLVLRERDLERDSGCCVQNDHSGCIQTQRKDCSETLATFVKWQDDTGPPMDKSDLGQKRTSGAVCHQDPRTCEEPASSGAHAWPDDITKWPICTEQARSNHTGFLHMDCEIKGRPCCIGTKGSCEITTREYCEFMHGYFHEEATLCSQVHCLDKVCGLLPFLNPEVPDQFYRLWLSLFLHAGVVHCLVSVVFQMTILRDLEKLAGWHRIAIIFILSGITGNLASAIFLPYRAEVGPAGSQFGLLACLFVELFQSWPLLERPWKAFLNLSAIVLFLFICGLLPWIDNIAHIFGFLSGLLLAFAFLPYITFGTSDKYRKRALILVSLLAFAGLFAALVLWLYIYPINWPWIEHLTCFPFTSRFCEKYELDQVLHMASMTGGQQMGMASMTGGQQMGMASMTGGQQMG
The experiment in a line: FACS on MEF-DKO cells expressing the variant, 3 µg/ml antibody. The procedure, abridged: (§1)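 Pelleted cells are resuspended in antibody at 3 μg/ml and kept on ice 1 hour, washed, then incubated with PE goat anti-mouse IgG F(ab′)2 diluted 1:100 on ice for 1 hour protected from light, washed again and analysed by flow cytometry.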

Another test addresses T2, hiR2-FL-F588A-T7 (human, UniProt Q6PJF5 1-856).
T2 sequence: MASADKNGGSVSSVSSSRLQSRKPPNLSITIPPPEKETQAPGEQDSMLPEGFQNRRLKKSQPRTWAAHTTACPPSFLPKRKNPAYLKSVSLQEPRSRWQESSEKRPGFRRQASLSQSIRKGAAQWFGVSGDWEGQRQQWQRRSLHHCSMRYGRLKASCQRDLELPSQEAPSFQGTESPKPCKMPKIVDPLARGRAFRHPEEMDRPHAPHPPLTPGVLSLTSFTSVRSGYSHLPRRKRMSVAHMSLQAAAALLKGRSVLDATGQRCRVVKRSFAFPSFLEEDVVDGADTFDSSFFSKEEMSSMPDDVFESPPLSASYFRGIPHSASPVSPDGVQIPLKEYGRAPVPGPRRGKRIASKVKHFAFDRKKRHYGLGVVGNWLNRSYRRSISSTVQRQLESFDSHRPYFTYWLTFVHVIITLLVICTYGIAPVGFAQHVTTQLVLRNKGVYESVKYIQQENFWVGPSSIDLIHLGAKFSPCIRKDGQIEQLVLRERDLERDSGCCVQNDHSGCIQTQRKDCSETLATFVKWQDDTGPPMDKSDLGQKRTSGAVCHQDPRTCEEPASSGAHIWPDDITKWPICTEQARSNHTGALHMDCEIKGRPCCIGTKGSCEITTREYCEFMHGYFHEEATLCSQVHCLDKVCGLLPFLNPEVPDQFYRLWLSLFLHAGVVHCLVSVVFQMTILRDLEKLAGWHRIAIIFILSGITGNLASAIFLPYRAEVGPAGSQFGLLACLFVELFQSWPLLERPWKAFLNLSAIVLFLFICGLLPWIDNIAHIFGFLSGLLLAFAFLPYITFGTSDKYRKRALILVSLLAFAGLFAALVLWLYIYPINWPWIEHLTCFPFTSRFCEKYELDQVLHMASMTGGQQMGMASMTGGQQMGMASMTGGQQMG
Described as above. The method in brief: as §1

B1: antibody 34 (antibody, V domains shown)
VH: QVTLKESGPGILQPSQTLSLTCSFSGFSLSTFSLGVGWIRQSSGKGLEWLAHIWWDDEKYYNPALKSRLTISKDTSKNQVFLKIANVDAADTATYYCARAYYSKSYYALDYWGQGTSVTVSS
VL: DIQMTQSPSSLSASLGERVSLTCRASQEISGYLSWLQQKPDGTIKRLIYAASTLDSGVPKRFSGSRSGSDYSLAISSLESEDFADYYCLQYANFPFTFGSGTKLEIK
notes: mouse IgG, kappa light chain; also called clone #34; purified antibody 34
On to B1, for which the “loss of binding vs wild type” value with hiR2-FL-I566A-T7 was not below 30%.

B2: antibody 48 (antibody, V domains shown)
VH: QVQLQQSGTELVRPGTSVKVSCKASGYAFTNYLIEWVKQRPGQGLEWIGVINPGSGFTKYNEKFKGKATLTADKSSSTVYMHLSSLTSEDSAVYFCARGLYRAMDYWGQGTSVTVSS
VL: DIQMTQSPASQSASLGESVTITCLASQTIATWLAWYQQKPGKSPQLLIYGATTLADGVPSRFSGGGSGTKFSFKISSLQAEDFVSYYCQQLYSTPYTFGGGTKLEIK
notes: mouse IgG, kappa light chain; also called clone #48; purified antibody 48
In the case of B2, the “loss of binding vs wild type” value in the test with hiR2-FL-F588A-T7 was not below 30%.
